Experimental data from patent US20100040635A1.

B1: Antibody 4 (antibody, V domains shown)
VH: QVQLQESGPGLVKPSETLSLTCTVSGYSFDSGYYWGWLRQPPGKGLEWIGSIYHSRNTYYNPSLKSRVTISVDTSKNQFSLQLSSVTAADTAVYYCARGTWYSSNLRYWFDPWGKGTL
VL: NFMLTQPHSVSESPGKTVTISCTGSGGNIARNYVQWYQQRPGSAPVTVILEDDKRPSGIPDRFSGSIDRSSNSASLTISGLRTEDEALYYCQSYDDSDLVVFGGGTKLT
B2: Antibody 2 (antibody, V domains shown)
VH: QVQLVQSGAEVKKPGSSVKVSCKTSGGTFSSYAVTWVRQAPGQGLEWMGGIIGMFGTTNYAQKFQGRVTITADELTSTAYMELSSLRSEDTAVYYCARGSYYYESSLDYWGRGTL
VL: ETTLTQSPATLSVSPGERATLSCRASQSVSRNLAWYQQKPGQAPRLLIYGASSRATGIPDRFSGSGSGTDFTLTISRLEPEDFAVYYCQQYGSSSITFGQGTRLEIKR
B3: Antibody 3 (antibody, V domains shown)
V domain 1: EVQLVQSGAEVKKPGSSVKVSCKTSGGTFSSYAVTWVRQAPGQGLEWMGAIIGMFGTTNYAQKFQGRVTITADELTSTAYMELSSLRSDDTAVYYCARGSYYYESSLDYWGKGTL
V domain 2: QSVLTQPPSVSGAPGQRVTISCGGSRSNIGAGYDVHWYQQFPGTAPKVVIYGNNNRPSGVPDRFSGSKSGTSASLAITGLQAEDEANYYCQSYDTNLGGSIFGGGTQVTVL
B4: Antibody 1 (antibody, V domains shown)
VH: QVQLVQSGAEVKKPGSSVRVSCKTSGGTFSSYAVTWVRQAPGQGLEWMGGIIGMFGTTNYAQKFQGRLTITADEMTSTAYMELSSLRSEDTAVYYCARGSYYYETTLDYWGRGTL
VL: ETTLTQSPGTLSLSPGERATLSCRVSQSVSSNYLAWYQQKPGQAPRLLIYGASSRATGIPDRFSGSGSGTDFTLTISRLEPEDFAVYYCQQYGTSPRAFGHGTKVEIKR

Tests used:
[1] = biological target: H1 hemagglutinin of influenza A/New Caledonia/20/99 (H1N1) (influenza A virus H1N1 A/New Caledonia/20/99); assay: cell-based or functional assay
[2] = biological target: H5 hemagglutinin of influenza A/Indonesia/5/05 (H5N1) (influenza A virus H5N1 A/Indonesia/5/05); assay: cell-based or functional assay
[3] = biological target: H5 hemagglutinin of influenza A/Turkey/65596/06 (H5N1) (influenza A virus H5N1 A/Turkey/65596/06); assay: cell-based or functional assay
[4] = biological target: H5 hemagglutinin of influenza A/Vietnam/1203/04 (H5N1) (influenza A virus H5N1 A/Vietnam/1203/04); assay: cell-based or functional assay
[5] = biological target: H5 hemagglutinin of influenza A/Vietnam/1203/04 (H5N1) (influenza A virus H5N1 A/Vietnam/1203/04)

Binder	Minimum inhibitory concentrations required to neutralize virus [1] [µg/mL]	Minimum inhibitory concentrations required to neutralize virus [2] [µg/mL]	Minimum inhibitory concentrations required to neutralize virus [3] [µg/mL]	Minimum inhibitory concentrations required to neutralize virus [4] [µg/mL]	Neutralization (MIC), H5N1 Vietnam 1203 virus, microneutralization [5] [µg/mL]
B1	> 333	> 333	–	–	–
B2	–	27	108	63	188
B3	–	16	31	–	175
B4	9	9.3	9.3	–	–
